This is an account of results in PMC11629607, “Nanobodies against the myelin enzyme CNPase as tools for structural and functional studies” (Journal of Neurochemistry, 2024).

To fix the notation:
T1: TOM70-EGFP-CNPase-ALFAtag (Mus musculus (assumed))
T1 construct: 2′,3′-cyclic nucleotide 3′-phosphodiesterase (CNPase), catalytic domain; also called TOM70‐EGFP‐CNPase (catalytic domain); CNPase anchored to mitochondria; source: COS-7, co-transfected (pcDNA3.1, synthetic gene), in cells; not shown: TOM70 (anchor to the mitochondrial outer membrane), N-terminal, kept; EGFP, internal (between TOM70 and CNPase), kept
T1 chain: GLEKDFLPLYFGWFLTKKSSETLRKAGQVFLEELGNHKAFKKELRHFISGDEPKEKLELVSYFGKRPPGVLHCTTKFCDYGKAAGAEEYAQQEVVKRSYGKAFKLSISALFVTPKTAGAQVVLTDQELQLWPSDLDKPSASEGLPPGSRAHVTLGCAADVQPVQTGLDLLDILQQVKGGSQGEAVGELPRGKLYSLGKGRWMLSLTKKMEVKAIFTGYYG

B1: anti-CNPase nanobody NbCNP 8D (VHH)
VHH: EVQLEESGGGLVQPGGSLRLSCAASGFTFSSYVMSWVRQAPGKGLEWVSDINSGGSRTYYTDSVKGRFTISRDNAKNTLYLQMNSLKPEDTAVYYCARDSLLSTRYLHTSERGQGTQVTVSS
notes: this construct has a short, extended tail; The batch from the His14-bdSUMO system was used for structural work; also called Nb 8D; source: E. coli SHuffle Express, His14-bdSUMO fusion, purified (Ni2+ beads, eluted by bdSENP1 cleavage)
B2: anti-CNPase nanobody NbCNP 7E (VHH)
VHH: EVQLEESGGGWVHPGGSLRLSCAASGNVFGVNTMAWYRQAPGKQREQRELVASITDYGTTEYADSVKGRFTISGDNAKATVYLQMNSLKPEDTAVYYCNMDLTVMTATSSLYAYDYWGQGTQVTVSS
notes: source: E. coli Shuffle T7, His6-MaBP fusion (pHMGWA), purified (NiNTA, TEV, reverse NiNTA, SEC); not shown: His6, N-terminal, cleaved
B3: anti-CNPase nanobody NbCNP 5E (VHH)
VHH: EVQLLESGGGSVQAGGSLRLSCAASGFTVGDYAIGWFRQAPGQQREAVACISTDDGDTYYADSVKGRFTISSDNAKKTAYLEMNNLKPEDTAVYHCAVDGWDSSCTFYSPSYYRDFSDHGAWGQGTQVTVSS
notes: Extra disulphide between CDR2 and CDR3; also called Nb5E; source: E. coli Shuffle T7, His6-MaBP fusion (pHMGWA), purified (NiNTA, TEV, reverse NiNTA, SEC); not shown: His6, N-terminal, cleaved
B4: anti-CNPase nanobody NbCNP 8C (VHH)
VHH: EVQLEESGGGLVQAGGSLTLSCAASGFTFDDYAMGWYRQAPGKERVGVSCISRTDGYTYYLDSVKGRFTISTDHAKHTVYLQMNNLKPDDTGLYYCAADADPEYGSRCPDPYYGMDYWGKGILVTVSS
notes: Extra disulphide between CDR2 and CDR3; source: E. coli Shuffle T7, His6-MaBP fusion (pHMGWA), purified (NiNTA, TEV, reverse NiNTA, SEC); not shown: His6, N-terminal, cleaved
B5: anti-CNPase nanobody NbCNP 10E (VHH)
VHH: EVQLEESGGGLVQPGGSLRLSCAVSGITLDDFGIGWFRQAPGKEREGVACISPGYEHIYYADSAKGRFTISRDNAKNTVYLQMNNLKPWDTGVYYCAADNDLPDRLWGGSDWSDPSPYDYWGQGTQVTVSS
notes: Purified as described for anti-Arc Nbs (Markusson et al., 2022); source: E. coli, pTH27 vector, purified (SEC, TEV, reverse NiNTA, SEC); not shown: His6, N-terminal, cleaved
B6: MaBP-8D (NbCNP 8D fusion with the intact His6-MaBP) (VHH)
VHH: B1 VHH
B7: MaBP-10E (His6-maltose-binding protein fusion of NbCNP 10E) (VHH)
VHH: B5 VHH
notes: as the VHH of m9; source: E. coli Shuffle T7, pHMGWA vector, purified; not shown: His6, N-terminal, kept
B8: iNbCNP 5E fused to mRuby3 (VHH)
VHH: B3 VHH
notes: as the VHH of m5; also called NbCNP 5E-mRuby3; source: COS-7, co-transfected, in cells; not shown: mRuby3, C-terminal, kept
B9: iNbCNP 8D fused to mRuby3 (VHH)
VHH: B1 VHH
notes: VHH of NbCNP 8D; also called NbCNP‐8D‐mRuby3; source: COS-7, co-transfected, in cells; not shown: mRuby3, C-terminal, kept
B10: iNbCNP 10E fused to mRuby3 (VHH)
VHH: B5 VHH
notes: as the VHH of m9; also called NbCNP 10E-mRuby3; source: COS-7, co-transfected, in cells; not shown: mRuby3, C-terminal, kept

For the first data set, the target named is T2, full-length mouse CNPase (Mus musculus (mouse), UniProt P16330).
T2 construct: 2′,3′-cyclic nucleotide 3′-phosphodiesterase (CNPase), mouse, full-length; also called mCNPase; full-length mCNPase; source: E. coli Rosetta (DE3), pTH27 vector, autoinduction, purified (SEC)
T2 sequence (P16330 whole entry): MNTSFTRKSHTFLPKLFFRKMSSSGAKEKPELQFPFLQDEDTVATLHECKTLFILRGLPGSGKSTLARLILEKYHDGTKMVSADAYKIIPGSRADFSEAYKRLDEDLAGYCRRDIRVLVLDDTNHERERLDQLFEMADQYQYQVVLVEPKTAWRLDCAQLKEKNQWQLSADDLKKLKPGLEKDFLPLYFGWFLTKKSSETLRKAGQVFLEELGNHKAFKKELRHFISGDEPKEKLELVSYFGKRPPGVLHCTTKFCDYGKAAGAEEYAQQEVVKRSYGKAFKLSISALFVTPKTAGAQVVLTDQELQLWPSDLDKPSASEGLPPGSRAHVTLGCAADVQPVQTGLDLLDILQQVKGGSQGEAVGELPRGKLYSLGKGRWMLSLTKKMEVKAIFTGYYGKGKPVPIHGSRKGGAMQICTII
As to the kind of experiment: nanoDSF thermal shift (Trp fluorescence); complex prepared by SEC, 2 mg/mL; 20 mM HEPES, 200 mM NaCl, 0.5 mM TCEP, pH 7.5. The following applies: both partners purified. In general terms: DSF heats the sample and reads unfolding from a dye or from intrinsic fluorescence.
In the case of B1, the “∆Tm” value was 17.7 °C.

The target in a further data set is T2, full-length mouse CNPase. The data set is described as follows: DSF thermal shift (SYPRO-Orange); full-length CNPase with Nb; 20 mM HEPES, 150 mM NaCl, 0.5 mM TCEP, pH 7.5; 20–95°C; N = 3. The following applies: both partners purified.
As for B2, the “∆Tm” value came to 2.1 °C.

Regarding B3, the “∆Tm” value amounted to 17 °C.

With B1, the “∆Tm” value came out at 18 °C.

For the molecule B4, the “∆Tm” value came to 9.2 °C.

With B5, the “∆Tm” value is 4.2 °C.

The target in the next data set is T3, mouse CNPase catalytic domain (mouse, UniProt P16330).
T3 construct: 2′,3′-cyclic nucleotide 3′-phosphodiesterase (CNPase), mouse, catalytic (C-terminal phosphodiesterase) domain; As used in ITC, crystallisation and SEC-SAXS; also called mCNPase catalytic domain; C-terminal phosphodiesterase domain; source: E. coli Rosetta (DE3), pTH27 vector, autoinduction, purified (SEC)
The data set is described as follows: SEC-SAXS; Nb mixed with the CNPase catalytic domain in 1.3-fold molar excess; 20 mM HEPES, 150 mM NaCl, 0.5 mM TCEP, pH 7.5.
Settings: not given
For orientation: Size exclusion chromatography separates by hydrodynamic size, large species first.
Consider B3, for which the stoichiometry N (in general, a count of units in the complex or per binding partner) amounted to 1.

For the molecule B6, the stoichiometry N stood at 1.

As for B1, the stoichiometry N was determined as 1.

Still in this data set, the particulars now being: both partners purified.
B2: the “stoichiometry N” value came out at 1.

In the case of B4, the “stoichiometry N” value is 1.

Another data set addresses T2, full-length mouse CNPase. As to the kind of experiment: enzyme inhibition kinetics (Dixon plot); apparent Ki; 2′,3′-cNADP+ hydrolysis by full-length mCNPase, coupled assay; 100 mM Bis-Tris pH 6.0, 10 mM MgCl2; +25°C. The note with it: both partners purified.
On to B5, for which the Ki was 0.604 nM.

Another data set addresses T3, mouse CNPase catalytic domain. As to the kind of experiment: ITC; 8.5–11 μM CNPase catalytic domain in the cell, 88–95 μM Nb in the syringe; 20 mM HEPES, 150 mM NaCl, 0.5 mM TCEP, pH 7.5; +25°C; 1:1 binding model; single experiments.
Settings: not given
Background: ITC needs no label: the signal is the heat of the interaction.
With B3, the dissociation constant (Kd) (in general, the constant that tells how readily two partners part at equilibrium) was found to be 2.2 nM; the dH was -13.8 kcal/mol; the stoichiometry N is 0.82.

B6: the Kd amounted to 0.2 nM, the dH is -11 kcal/mol and the stoichiometry N is 0.837.

Regarding B1, the Kd is 2.5 nM, the dH was -11 kcal/mol and the stoichiometry N worked out at 0.8.

The same data set, now with this note: both partners purified.
As to B2, the Kd is 83.3 nM, the dH was -14.2 kcal/mol and the “stoichiometry N” value came out at 0.863.

In the case of B4, binding was characterised by a dissociation constant (Kd) of 16.6 nM, the dH was -7.07 kcal/mol and the “stoichiometry N” value turned out to be 0.914.

B5: binding was put at a Kd of 9.8 nM, the dH is -12.1 kcal/mol and the “stoichiometry N” value was found to be 0.804.

On to B7, for which the Kd was determined as 13.4 nM, the dH was -18.1 kcal/mol and the “stoichiometry N” value stood at 0.836.

Another data set deals with T1, TOM70-EGFP-CNPase-ALFAtag. As to the kind of experiment: recruitment to a mitochondria-anchored target (co-localisation by confocal microscopy); COS-7 cells co-transfected with TOM70-EGFP-CNPase and an iNb fused to mRuby3; fixed ca. 16 h after transfection; Pearson's correlation, N = 9 cells. The following applies: partners not purified.
For the molecule B8, the binding result is “binds”.

For B9, the binding result is listed as “binds”.

For B10, the binding result was “binds”.
